Source: patent US20080138847A1, “Bcl-2 family member and BH-3 only proteins for use in development of peptidomimetics” (priority 2004, published 2008)
“Also recorded” adds a separate entry of the source. Where no end group is shown, it is not given here.

T1: CED-9 protein (residues 1-251) (Caenorhabditis elegans, UniProt P41958)
T1 construct: made in house
T1 sequence (P41958 1-251): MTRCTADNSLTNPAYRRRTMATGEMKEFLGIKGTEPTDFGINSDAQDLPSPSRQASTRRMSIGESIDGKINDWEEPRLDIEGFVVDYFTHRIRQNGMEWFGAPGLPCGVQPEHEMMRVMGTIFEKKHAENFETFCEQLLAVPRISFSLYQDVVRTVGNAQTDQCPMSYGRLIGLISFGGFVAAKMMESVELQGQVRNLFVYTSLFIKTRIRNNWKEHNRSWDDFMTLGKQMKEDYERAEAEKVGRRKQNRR

T2: CED-4/CED-9 complex (Caenorhabditis elegans, UniProt P41958)
T2 sequence (P41958 1-251 limits assumed): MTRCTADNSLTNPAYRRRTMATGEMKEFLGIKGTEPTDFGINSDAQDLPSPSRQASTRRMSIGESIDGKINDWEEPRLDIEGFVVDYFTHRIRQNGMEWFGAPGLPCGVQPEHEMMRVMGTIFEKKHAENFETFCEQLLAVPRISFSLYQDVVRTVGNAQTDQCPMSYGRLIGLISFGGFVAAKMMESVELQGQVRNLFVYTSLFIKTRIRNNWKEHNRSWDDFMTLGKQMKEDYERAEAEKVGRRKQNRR


Legend:
[1] = target: T1, CED-9 protein (residues 1-251); assay: GST-EGL-1 fragment/mutant interaction with CED-9 (GST-mediated pull-down assay); format: binding, C. elegans; details: GST-EGL-1 fragments or mutants, in vitro
Protocol: This example describes the characterization of EGL-1/CED-9 interactions. To determine the mechanism of CED-9 recognition by EGL-1, the EGL-1/CED-9 interaction was characterized. Various fragments of the GST-EGL-1 protein were evaluated for their abilities to interact with the CED-9 protein (residues 1-251).
To further characterize EGL-1/CED-9 interactions, a number of missense mutations were introduced into EGL-1 and the ability of the resulting EGL-1 mutants to interact with CED-9 was determined.
This example describes the biochemical and functional analysis of EGL-1/CED-9 interactions. To corroborate the structural analysis, mutations on the interface residues of EGL-1 were examined for their potential to weaken or disrupt its binding to CED-9. Various mutant EGL-1 fragments were purified as fusion proteins with glutathione S-transferase (GST) and their interactions with CED-9 were investigated using a GST-mediated pull-down assay.

CED-4/CED-9 complex = target: T2, CED-4/CED-9 complex; assay: CED-4 displacement assay (pre-assembled CED-4/CED-9 complex on glutathione resin challenged with EGL-1 fragments); format: biochemical, C. elegans; details: in vitro, remaining complex visualized on SDS polyacrylamide gel
From the text: EGL-1 induces apoptosis by displacing CED-4 from the CED-4/CED-9 complex. To recapitulate this finding in vitro, a CED-4 displacement assay was designed in which pre-assembled CED-4/CED-9 complex was immobilized on glutathione resin and was then challenged with various EGL-1 fragments. After extensive washing, the remaining CED-4/CED-9 complex was eluted from the resin and visualized on SDS polyacrylamide gel. […] In contrast, most missense mutations at the EGL-1/CED-9 interface weakened the ability of EGL-1 to displace CED-4 from the CED-4/CED-9 complex. […] The in vitro studies are in complete agreement with the structural observation.

[2] = tested on: ced-1 (e1735); egl-1 (n1084 n3082) animals; assay: in vivo cell killing: cell corpses in four-fold transgenic embryos after heat-shock expression of EGL-1 fragments; design: species or system C. elegans; details: anterior head region of four-fold transgenic embryos; heat-shock promoter expression
Protocol: In this example, the ability of EGL-1 mutants to disrupt the CED-4/CED-9 complex was tested. […] To examine this scenario, constructs were injected into ced-1 (e1735); egl-1 (n1084 n3082) animals that direct expression of various EGL-1 fragments under the control of the C. elegans heat-shock promoters. Cell corpses were scored in the anterior head region of four-fold transgenic embryos after the heat-shock treatment.

[3] = listed as EGL-1 double mutant (G55E/F65A)

Row | Molecule | interaction with (binding to) CED-9 [1] | ability to displace CED-4 from the CED-4/CED-9 complex (CED-4/CED-9 complex) | cell killing (cell corpses induced) [2] | also measured
1 | C-terminal half of EGL-1 (amino acids 45-87): C-terminal half of EGL-1, residues 45-87 (SEISSIGYEIGSKLAAMCDDFDAQMMSYSAHASDRSLFHRLLD) | necessary and sufficient; also recorded: formed a stable complex | completely displaced CED-4 | necessary and sufficient | 
2 | C-terminal half of EGL-1 (residues 45-91): C-terminal half of EGL-1, residues 45-91 (EDSSQFADDSGFFDDSEISSIGYEIGSKLAAMCDDFDAQMMSYSAHA; UniProt O61667 45-91, looked up, fragment) | formed a stable complex |  |  | 
3 | EGL-1 C-terminal fragment (residues 46-87): EGL-1 C-terminal fragment residues 46-87 expressed in vivo (DSSQFADDSGFFDDSEISSIGYEIGSKLAAMCDDFDAQMMSY; UniProt O61667 46-87, looked up, fragment) |  |  | about half the number of cell corpses as the full-length EGL-1 | 
4 | L58A: EGL-1 mutant, Leu58 substituted by Ala (SEISSIGYEIGSKAAAMCDDFDAQMMSYSAHASDRSLFHRLLD; not fully specified) | did not significantly affect its interaction with CED-9; also recorded: retaining their ability to bind to CED-9 | significantly reduced ability |  | 
5 | N-terminal half (residues 1-45) of EGL-1: N-terminal half of EGL-1, residues 1-45 (MSNVFDVQSSVFYNEKNMFYSSSQDFSSCEDSSQFADDSGFFDDS; not fully specified) | did not show detectable binding |  | did not induce cell death | 
6 | mut2: EGL-1 double mutant G55E/F65A (SEISSIGYEIESKLAAMCDDADAQMMSYSAHASDRSLFHRLLD; not fully specified) | failed to bind to CED-9 | completely failed to disrupt the CED-4/CED-9 complex | induced no cell killing | interaction with (binding to) CED-9 [1, 3]: failed to bind to CED-9; interaction with (binding to) CED-9 ([1]; listed as G55E and F65A): completely abolished its interaction with CED-9; ability to displace CED-4 from the CED-4/CED-9 complex (CED-4/CED-9 complex; [3]): failed to bind to CED-9 or to displace CED-4
7 | mut4: EGL-1 quadruple mutant G55E/L58A/F65A/M69A (SEISSIGYEIESKAAAMCDDADAQAMSYSAHASDRSLFHRLLD; also: fused to a dimerising Fc or GST (left off)) | failed to bind to CED-9 | completely failed to disrupt the CED-4/CED-9 complex |  | 
8 | G55E: EGL-1 mutant, Gly55 substituted by glutamate (protein, UniProt O61667 1-106, looked up, variant G55E) Programmed cell death …: MLMLTFASTSSDLLPMSNVFDVQSSVFYNEKNMFYSSSQDFSSCEDSSQFADDSEFFDDSEISSIGYEIGSKLAAMCDDFDAQMMSYSAHASDRSLFHRLLDFFAF | not sufficient to abolish interaction with CED-9; also recorded: retaining their ability to bind to CED-9 | significantly reduced ability | significantly lower level than that of the wild-type EGL-1 protein | interaction with (binding to) CED-9 ([1]; listed as EGL-1 (G55E)): retained its ability to interact with CED-9; ability to displace CED-4 from the CED-4/CED-9 complex (CED-4/CED-9 complex; listed as EGL-1 (G55E)): decreased ability to disrupt the CED-4/CED-9 complex
9 | wild-type EGL-1 protein (residues 1-87): wild-type EGL-1 residues 1-87, lacking the four C-terminal hydrophobic residues (protein) MSNVFDVQSSVFYNEKNMFYSSSQDFSSCEDSSQFADDSGFFDDSEISSIGYEIGSKLAAMCDDFDAQMMSYSAHASDRSLFHRLLD |  | completely displaced CED-4 |  | 
